How the values were obtained:
AncSZ = experiment: phosphorylation enrichment, bacterial display (enrichment ratio); higher = better substrate or ligand; peptides without Tyr show the background
EPHB1 = EPHB1 (UniProt P54762); experiment: as above
EPHB2 = EPHB2 (UniProt P29323); experiment: as above
FGFR1 = FGFR1 (UniProt P11362); experiment: as above
FGFR3 = FGFR3 (UniProt P22607); experiment: as above
Fer (mouse) = experiment: as above
Fes = Fes (UniProt P07332); experiment: as above
Fyn = Fyn (UniProt P06241); experiment: as above
Sequence of Fyn (P06241 whole entry, looked up): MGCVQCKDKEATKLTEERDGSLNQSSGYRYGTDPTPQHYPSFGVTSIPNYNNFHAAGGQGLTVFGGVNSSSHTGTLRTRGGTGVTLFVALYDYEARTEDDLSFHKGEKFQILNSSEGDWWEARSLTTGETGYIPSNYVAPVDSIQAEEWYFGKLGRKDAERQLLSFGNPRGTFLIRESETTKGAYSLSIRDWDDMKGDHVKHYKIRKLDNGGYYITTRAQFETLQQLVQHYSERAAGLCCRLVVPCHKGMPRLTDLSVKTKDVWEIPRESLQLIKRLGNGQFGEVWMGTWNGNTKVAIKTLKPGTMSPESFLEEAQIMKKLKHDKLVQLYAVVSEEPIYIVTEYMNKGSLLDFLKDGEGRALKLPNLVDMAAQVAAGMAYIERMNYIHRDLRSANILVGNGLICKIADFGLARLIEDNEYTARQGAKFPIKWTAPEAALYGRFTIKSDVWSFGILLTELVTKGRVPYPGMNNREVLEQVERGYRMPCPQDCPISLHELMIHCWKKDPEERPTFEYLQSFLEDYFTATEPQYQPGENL

Hck = Hck (UniProt P08631); experiment: as above
Sequence of Hck (P08631 whole entry, looked up): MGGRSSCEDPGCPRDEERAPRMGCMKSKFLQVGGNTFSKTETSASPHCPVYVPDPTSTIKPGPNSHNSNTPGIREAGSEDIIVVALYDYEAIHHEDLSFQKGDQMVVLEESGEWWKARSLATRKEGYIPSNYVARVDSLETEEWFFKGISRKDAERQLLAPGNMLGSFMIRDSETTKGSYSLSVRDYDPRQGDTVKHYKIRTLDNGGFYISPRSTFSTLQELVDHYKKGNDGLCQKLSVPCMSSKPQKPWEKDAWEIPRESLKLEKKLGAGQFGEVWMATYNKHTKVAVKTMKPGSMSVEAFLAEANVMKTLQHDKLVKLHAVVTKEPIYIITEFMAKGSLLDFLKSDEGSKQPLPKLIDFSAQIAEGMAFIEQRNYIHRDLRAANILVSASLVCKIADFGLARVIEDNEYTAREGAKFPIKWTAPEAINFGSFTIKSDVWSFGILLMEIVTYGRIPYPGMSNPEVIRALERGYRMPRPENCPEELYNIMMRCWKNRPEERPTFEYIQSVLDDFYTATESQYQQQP

Jak2 = Jak2 (UniProt O60674); experiment: as above
Sequence of Jak2 (O60674 whole entry, looked up): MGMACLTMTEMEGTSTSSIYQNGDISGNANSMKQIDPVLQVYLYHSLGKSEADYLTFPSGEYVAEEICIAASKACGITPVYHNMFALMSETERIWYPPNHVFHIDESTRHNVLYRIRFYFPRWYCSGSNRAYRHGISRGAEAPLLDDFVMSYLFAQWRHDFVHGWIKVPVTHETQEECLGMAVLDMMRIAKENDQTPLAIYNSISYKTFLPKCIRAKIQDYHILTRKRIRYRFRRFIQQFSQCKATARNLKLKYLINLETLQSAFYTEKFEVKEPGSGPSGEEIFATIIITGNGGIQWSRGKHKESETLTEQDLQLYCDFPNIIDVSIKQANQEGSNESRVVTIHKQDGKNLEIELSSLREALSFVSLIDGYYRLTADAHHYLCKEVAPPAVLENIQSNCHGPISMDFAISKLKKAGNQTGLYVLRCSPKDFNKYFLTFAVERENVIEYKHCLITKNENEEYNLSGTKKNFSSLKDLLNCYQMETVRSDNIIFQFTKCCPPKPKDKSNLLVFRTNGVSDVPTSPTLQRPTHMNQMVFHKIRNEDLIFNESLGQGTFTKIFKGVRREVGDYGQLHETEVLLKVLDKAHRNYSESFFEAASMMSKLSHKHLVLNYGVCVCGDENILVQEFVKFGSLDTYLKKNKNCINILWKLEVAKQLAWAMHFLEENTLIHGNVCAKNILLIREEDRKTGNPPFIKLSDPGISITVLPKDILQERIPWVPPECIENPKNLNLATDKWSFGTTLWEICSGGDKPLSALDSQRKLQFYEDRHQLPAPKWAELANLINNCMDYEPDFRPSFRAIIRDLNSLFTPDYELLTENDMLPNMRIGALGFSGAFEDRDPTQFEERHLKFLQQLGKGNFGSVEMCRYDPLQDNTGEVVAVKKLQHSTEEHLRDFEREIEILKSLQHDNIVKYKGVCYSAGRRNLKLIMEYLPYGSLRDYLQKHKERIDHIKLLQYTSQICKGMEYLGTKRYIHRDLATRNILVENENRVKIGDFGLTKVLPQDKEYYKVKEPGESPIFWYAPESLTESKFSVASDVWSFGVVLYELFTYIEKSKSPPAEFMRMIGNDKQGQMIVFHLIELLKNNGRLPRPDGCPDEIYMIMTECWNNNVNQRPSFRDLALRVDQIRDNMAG

MERTK = MERTK (UniProt Q12866); experiment: as above
Sequence of MERTK (Q12866 whole entry, looked up): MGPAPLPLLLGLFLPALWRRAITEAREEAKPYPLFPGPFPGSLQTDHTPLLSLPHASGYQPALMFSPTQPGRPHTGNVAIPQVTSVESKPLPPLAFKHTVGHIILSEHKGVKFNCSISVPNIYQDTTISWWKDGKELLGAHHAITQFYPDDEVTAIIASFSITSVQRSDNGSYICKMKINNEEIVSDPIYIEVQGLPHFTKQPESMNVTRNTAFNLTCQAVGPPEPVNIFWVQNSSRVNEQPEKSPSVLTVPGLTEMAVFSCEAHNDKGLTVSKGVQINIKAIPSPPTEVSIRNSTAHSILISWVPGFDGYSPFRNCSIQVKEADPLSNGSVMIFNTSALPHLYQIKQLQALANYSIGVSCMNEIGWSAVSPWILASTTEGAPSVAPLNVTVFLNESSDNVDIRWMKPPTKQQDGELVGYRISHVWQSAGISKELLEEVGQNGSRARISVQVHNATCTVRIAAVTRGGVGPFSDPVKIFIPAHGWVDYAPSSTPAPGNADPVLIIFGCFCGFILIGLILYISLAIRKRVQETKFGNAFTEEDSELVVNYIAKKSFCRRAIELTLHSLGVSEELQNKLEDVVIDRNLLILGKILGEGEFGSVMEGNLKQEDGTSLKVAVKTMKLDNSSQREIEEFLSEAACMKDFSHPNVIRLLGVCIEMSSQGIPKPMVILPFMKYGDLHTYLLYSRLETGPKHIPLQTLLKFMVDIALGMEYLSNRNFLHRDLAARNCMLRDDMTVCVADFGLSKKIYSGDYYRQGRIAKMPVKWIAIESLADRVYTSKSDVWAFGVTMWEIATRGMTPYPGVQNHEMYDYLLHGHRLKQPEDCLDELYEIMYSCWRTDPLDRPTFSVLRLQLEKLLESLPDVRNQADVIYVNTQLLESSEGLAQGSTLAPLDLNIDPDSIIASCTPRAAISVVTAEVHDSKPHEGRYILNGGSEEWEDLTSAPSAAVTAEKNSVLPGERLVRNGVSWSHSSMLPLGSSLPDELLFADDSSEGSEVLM

c-Abl (mouse) = experiment: as above
c-Src = experiment: as above
Grb2 SH2 = Grb2 SH2 (UniProt P62993); experiment: SH2 binding enrichment of the phosphorylated peptide, bacterial display (enrichment ratio); higher = better substrate or ligand; peptides without Tyr show the background
SHP2-C SH2 = experiment: as above
c-Src SH2 = experiment: as above
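Throughout, for SH2 binding enrichment of the phosphorylated peptide, bacterial display: peptide library displayed on the E. coli surface as eCPX fusions, selected cells deep-sequenced, score is each peptide's frequency after selection divided by its frequency in the input.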
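Throughout, for phosphorylation enrichment, bacterial display: 11-residue human phosphosite peptides and single-mutation variants displayed on the E. coli surface, counted by deep sequencing, each peptide's frequency after selection divided by its frequency in the unselected input library; frequency after pTyr selection over input frequency; kinase dosed for 20-30% of maximal phosphorylation in three min.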

Sequence of Fes (P07332 whole entry, looked up): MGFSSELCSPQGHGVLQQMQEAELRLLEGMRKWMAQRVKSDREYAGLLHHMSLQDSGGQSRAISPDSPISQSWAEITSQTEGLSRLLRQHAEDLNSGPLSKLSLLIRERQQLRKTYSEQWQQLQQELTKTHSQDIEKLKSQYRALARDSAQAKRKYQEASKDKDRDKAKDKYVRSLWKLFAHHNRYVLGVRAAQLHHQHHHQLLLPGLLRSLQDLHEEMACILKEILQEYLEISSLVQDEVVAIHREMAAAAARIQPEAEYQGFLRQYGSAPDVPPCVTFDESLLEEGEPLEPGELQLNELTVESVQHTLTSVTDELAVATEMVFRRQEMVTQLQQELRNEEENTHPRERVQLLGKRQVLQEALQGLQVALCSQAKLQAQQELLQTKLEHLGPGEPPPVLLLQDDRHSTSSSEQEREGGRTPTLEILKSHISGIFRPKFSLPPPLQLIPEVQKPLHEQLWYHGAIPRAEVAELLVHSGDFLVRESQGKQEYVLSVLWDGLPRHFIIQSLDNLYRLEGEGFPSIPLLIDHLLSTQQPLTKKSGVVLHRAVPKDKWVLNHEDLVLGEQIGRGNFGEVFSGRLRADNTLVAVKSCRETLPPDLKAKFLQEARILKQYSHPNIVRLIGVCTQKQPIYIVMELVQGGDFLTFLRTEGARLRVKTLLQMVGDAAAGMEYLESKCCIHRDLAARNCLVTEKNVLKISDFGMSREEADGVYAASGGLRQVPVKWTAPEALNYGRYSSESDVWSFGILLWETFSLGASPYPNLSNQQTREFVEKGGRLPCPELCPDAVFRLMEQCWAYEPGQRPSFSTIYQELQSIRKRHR
Sequence of EPHB2 (P29323 whole entry, looked up): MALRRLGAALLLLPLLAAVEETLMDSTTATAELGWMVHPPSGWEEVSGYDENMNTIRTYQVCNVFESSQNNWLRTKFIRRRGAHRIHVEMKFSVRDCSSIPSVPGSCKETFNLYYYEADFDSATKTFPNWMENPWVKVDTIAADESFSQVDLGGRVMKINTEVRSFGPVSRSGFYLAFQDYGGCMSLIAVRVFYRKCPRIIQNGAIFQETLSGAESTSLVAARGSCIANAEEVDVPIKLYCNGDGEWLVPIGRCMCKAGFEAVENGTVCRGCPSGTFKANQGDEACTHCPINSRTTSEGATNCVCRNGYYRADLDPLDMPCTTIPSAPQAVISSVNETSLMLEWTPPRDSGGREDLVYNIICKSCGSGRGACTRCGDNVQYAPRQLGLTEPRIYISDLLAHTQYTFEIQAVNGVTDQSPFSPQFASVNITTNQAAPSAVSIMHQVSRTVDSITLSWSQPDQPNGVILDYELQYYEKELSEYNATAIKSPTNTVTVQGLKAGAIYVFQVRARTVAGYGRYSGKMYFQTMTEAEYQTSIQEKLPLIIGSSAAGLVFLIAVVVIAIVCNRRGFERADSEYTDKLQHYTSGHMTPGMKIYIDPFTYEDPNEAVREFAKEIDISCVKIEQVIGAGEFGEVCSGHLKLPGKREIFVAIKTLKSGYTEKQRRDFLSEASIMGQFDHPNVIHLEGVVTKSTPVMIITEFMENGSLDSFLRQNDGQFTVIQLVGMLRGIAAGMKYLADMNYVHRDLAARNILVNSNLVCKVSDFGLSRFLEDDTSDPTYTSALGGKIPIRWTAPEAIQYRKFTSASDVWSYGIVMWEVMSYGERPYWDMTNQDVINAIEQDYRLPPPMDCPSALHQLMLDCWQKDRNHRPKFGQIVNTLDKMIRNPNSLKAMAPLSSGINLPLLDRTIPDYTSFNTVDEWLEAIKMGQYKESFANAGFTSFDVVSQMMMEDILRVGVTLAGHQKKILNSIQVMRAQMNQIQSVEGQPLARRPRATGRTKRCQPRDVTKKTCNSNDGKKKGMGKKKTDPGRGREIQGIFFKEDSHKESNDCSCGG

Row | SH2 binding enrichment (Grb2 SH2) | SH2 binding enrichment (SHP2-C SH2) | SH2 binding enrichment (c-Src SH2) | Sequence | phosphorylation enrichment (AncSZ) | phosphorylation enrichment (EPHB1) | phosphorylation enrichment (EPHB2) | phosphorylation enrichment (FGFR1) | phosphorylation enrichment (FGFR3) | phosphorylation enrichment (Fer (mouse)) | phosphorylation enrichment (Fes) | phosphorylation enrichment (Fyn) | phosphorylation enrichment (Hck) | phosphorylation enrichment (Jak2) | phosphorylation enrichment (MERTK) | phosphorylation enrichment (c-Abl (mouse)) | phosphorylation enrichment (c-Src)
1 | 0.957 | 1.36 | 0.826 | HCHEGYVLHGA [SVEP1_Y2921_I2922V] | 1.28 | 0.915 | 0.807 | 1.11 | 1.13 | 0.911 | 1.3 | 0.789 | 0.786 | 0.943 | 0.474 | 0.78 | 0.527
2 | 0.927 | 1.02 | 0.824 | NKFTTYLPRLP [C9orf24_Y126_YF] | 0.568 | 0.437 | 0.445 | 0.47 | 0.503 | 0.36 | 0.784 | 0.477 | 0.507 | 0.666 | 0.42 | 0.482 | 0.425
3 | 0.869 | 0.833 | 3.1 | IVAREYYSDAD [CAMK2A_Y106_E109D] | 1.04 | 0.775 | 0.647 | 0.657 | 0.633 | 0.589 | 1.13 | 0.473 | 0.525 | 0.959 | 0.41 | 0.828 | 0.559
4 | 0.963 | 0.853 | 0.528 | DLSEVYKPCRK [CCDC93_Y176_R179C] | 0.847 | 0.483 | 0.532 | 0.53 | 0.668 | 0.453 | 0.935 | 0.451 | 0.506 | 0.829 | 0.419 | 0.729 | 0.405
5 | 0.968 | 0.487 | 0.517 | MTKEQYIKMNQ [ARFGEF2_Y797_R802Q] | 0.662 | 0.38 | 0.575 | 0.687 | 0.637 | 0.399 | 0.805 | 0.347 | 0.443 | 0.706 | 0.381 | 0.665 | 0.341
6 | 0.829 | 0.612 | 0.864 | WGTPEYDSVVA [MAP1A_Y1883_A1881P] | 1.42 | 0.495 | 0.493 | 0.46 | 0.593 | 2.73 | 1.15 | 0.566 | 0.76 | 0.895 | 0.359 | 0.723 | 0.59
7 | 0.945 | 0.949 | 0.516 | KELANYFKLHH [AK7_Y390_YF] | 0.644 | 0.727 | 0.537 | 1.15 | 0.83 | 0.442 | 0.877 | 0.567 | 0.486 | 1.68 | 0.545 | 0.439 | 0.481
8 | 0.627 | 0.44 | 0.553 | QGRQTYLPQPA [DDR2_Y813] | 0.752 | 0.527 | 0.473 | 0.552 | 0.485 | 0.408 | 0.821 | 0.495 | 0.713 | 0.778 | 0.433 | 0.844 | 0.477
9 | 0.772 | 0.748 | 0.498 | LEAVSYSSRYA [RNLS_Y190] | 0.687 | 0.453 | 0.446 | 0.415 | 0.462 | 0.433 | 0.704 | 0.389 | 0.437 | 0.685 | 0.63 | 0.459 | 0.368
10 | 2.03 | 0.875 | 0.572 | VQSASYLNDCL [MCM3AP_Y864_A867D] | 0.788 | 0.536 | 0.602 | 0.757 | 0.712 | 0.487 | 0.97 | 0.448 | 0.502 | 0.798 | 0.447 | 0.693 | 0.422
11 | 0.903 | 0.66 | 0.898 | KPMDTYYDSTR [DYNC2H1_Y2230] | 0.874 | 0.632 | 0.675 | 0.998 | 0.76 | 0.447 | 0.774 | 0.543 | 1.13 | 0.545 | 0.498 | 0.678 | 0.7
12 | 1.18 | 0.956 | 0.954 | TQTPPYVKKHR [LARP1B_Y457_P462R] | 0.774 | 0.575 | 0.545 | 0.683 | 1.22 | 0.684 | 1.23 | 0.531 | 0.649 | 1.04 | 0.541 | 1.18 | 0.624
13 | 0.904 | 0.73 | 0.645 | GFRPVYSEDEQ [CHST6_Y362_YF] | 1.35 | 0.754 | 0.699 | 0.584 | 0.835 | 0.617 | 1.49 | 0.592 | 0.615 | 1.47 | 0.559 | 1.27 | 0.836
14 | 0.872 | 1.07 | 2.06 | VSKGGYFSVNL [C3orf33_Y164] | 0.875 | 0.556 | 0.672 | 0.428 | 0.599 | 0.423 | 0.972 | 0.485 | 0.483 | 1.08 | 0.418 | 0.682 | 0.44
15 | 1.21 | 0.701 | 0.611 | PVDVAYRHGYF [PLEC_Y2967_R2969H] | 1.71 | 0.752 | 1.48 | 0.863 | 1.1 | 0.543 | 1.05 | 0.536 | 0.695 | 1.9 | 0.687 | 1.4 | 0.905
16 | 0.712 | 0.744 | 0.609 | DTNIAYCLHPR [POMT1_Y581_W582C] | 0.831 | 0.549 | 0.532 | 0.471 | 0.691 | 0.505 | 1.06 | 0.541 | 0.431 | 0.754 | 0.695 | 0.753 | 0.568
17 | 0.826 | 0.557 | 0.568 | GLRYGYGGLGG [KRTAP20-2_Y15_V17G] | 0.507 | 0.349 | 0.31 | 0.339 | 0.412 | 0.334 | 0.564 | 0.349 | 0.329 | 0.44 | 0.349 | 0.431 | 0.398

Row | SH2 binding enrichment (Grb2 SH2) | SH2 binding enrichment (SHP2-C SH2) | SH2 binding enrichment (c-Src SH2) | Sequence | phosphorylation enrichment (AncSZ) | phosphorylation enrichment (EPHB1) | phosphorylation enrichment (EPHB2) | phosphorylation enrichment (FGFR1) | phosphorylation enrichment (FGFR3) | phosphorylation enrichment (Fer (mouse)) | phosphorylation enrichment (Fes) | phosphorylation enrichment (Fyn) | phosphorylation enrichment (Hck) | phosphorylation enrichment (Jak2) | phosphorylation enrichment (MERTK) | phosphorylation enrichment (c-Abl (mouse)) | phosphorylation enrichment (c-Src)
18 | 2.2 | 2.07 | 1.84 | KVKPIYFHTRG [AR_Y916_Q920R] | 0.853 | 0.452 | 0.498 | 0.598 | 0.614 | 0.416 | 0.892 | 0.448 | 0.527 | 0.885 | 0.456 | 0.633 | 0.477
19 | 0.797 | 0.63 | 0.39 | LNLDTYQKRLR [PLA2G2D_Y126_R121L] | 0.517 | 0.44 | 0.42 | 0.69 | 0.518 | 0.336 | 0.613 | 0.672 | 0.518 | 0.389 | 0.511 | 0.502 | 0.442
20 | 0.866 | 0.596 | 0.56 | ATPKGYETDAS [OTC_Y223_P225T] | 0.735 | 0.502 | 0.543 | 0.54 | 0.616 | 0.416 | 0.743 | 0.44 | 0.438 | 0.667 | 0.421 | 0.622 | 0.524
21 | 0.601 | 0.349 | 2.1 | MHRRQYELLGG [GNAS_Y391_L388R] | 0.577 | 0.28 | 0.426 | 0.5 | 0.425 | 0.307 | 0.715 | 0.371 | 0.409 | 0.48 | 0.391 | 0.416 | 0.336
22 | 0.852 | 0.498 | 0.528 | SQSKGYRPKLF [SIPA1L3_Y1376_G1371S_YF] | 0.503 | 0.415 | 0.32 | 0.433 | 0.42 | 0.368 | 0.549 | 0.417 | 0.41 | 0.5 | 0.458 | 0.478 | 0.435
23 | 1.28 | 1.97 | 2 | SHSMRYFYTAV [HLA-C_Y31_D33Y] | 1.04 | 0.71 | 0.689 | 0.778 | 0.893 | 0.587 | 1.26 | 0.611 | 0.631 | 1.2 | 3.29 | 0.691 | 0.928
24 | 1.17 | 0.861 | 0.598 | GFRVFYTPDSR [PTPRF_Y451_YF] | 0.962 | 0.562 | 0.448 | 0.52 | 0.64 | 0.462 | 1.19 | 0.468 | 0.564 | 1.03 | 0.37 | 0.612 | 0.449
25 | 1.01 | 0.712 | 0.797 | RRIHNYRGHLW [VHL_Y112_S111N] | 0.577 | 0.714 | 0.421 | 0.433 | 0.511 | 0.27 | 0.738 | 0.481 | 0.509 | 0.501 | 0.597 | 0.609 | 0.607
26 | 1.03 | 0.939 | 0.796 | HELYVYKCDEN [DOCK3_Y548] | 1.48 | 0.762 | 0.862 | 0.957 | 1.05 | 0.719 | 1.19 | 0.761 | 0.99 | 1.29 | 0.549 | 0.6 | 1.38
27 | 0.834 | 0.81 | 0.542 | IIGNGYYFHVF [MYBPC3_Y1135_R1138H] | 0.946 | 0.518 | 0.559 | 0.587 | 0.803 | 0.491 | 1.22 | 0.349 | 0.396 | 1.19 | 0.288 | 0.667 | 0.362
28 | 1.06 | 0.769 | 0.611 | CKPGFYNLKEK [LAMA1_Y490] | 0.693 | 0.543 | 0.469 | 0.472 | 0.507 | 0.43 | 0.793 | 0.359 | 0.357 | 0.602 | 0.378 | 0.568 | 0.34
29 | 0.619 | 0.752 | 1.8 | HNLYSYPTKHE [MYO3A_Y1396] | 3.92 | 11.6 | 16 | 0.782 | 0.838 | 15.2 | 1.18 | 5.22 | 8.1 | 0.561 | 13.6 | 3.28 | 2.96
30 | 0.831 | 0.716 | 0.542 | EEEPVYEAEPE [HCLS1_Y360] | 1.49 | 0.664 | 0.712 | 0.646 | 0.84 | 0.655 | 1.42 | 0.765 | 0.73 | 1.38 | 0.72 | 1.14 | 0.851
31 | 0.906 | 0.547 | 0.752 | CLEKEYFDQHF [NPC1_Y394_R389C] | 1.53 | 0.581 | 0.572 | 0.949 | 1.13 | 0.593 | 1.32 | 0.514 | 0.508 | 1.04 | 0.406 | 0.902 | 0.585
32 | 1.28 | 0.797 | 0.763 | KRGVSYILKLA [SERPINB1_Y84_A82V] | 1.4 | 0.504 | 0.557 | 0.534 | 0.676 | 0.524 | 1.6 | 0.426 | 0.558 | 1.34 | 0.446 | 0.768 | 0.412
33 | 0.835 | 0.43 | 0.485 | NSNSDYVDVLP [SH2D1B_Y127] | 2.46 | 4.08 | 2.82 | 3.73 | 2.95 | 0.884 | 1.33 | 0.628 | 0.735 | 1.11 | 0.54 | 0.743 | 0.598
